Source: US20120090043A1, “TARGETS FOR RETROVIRUS ASSOCIATED DISEASES” (priority 2009, published 2012)

Key:
Assay in all cases: cell-based or functional assay
[1] = target: PDE9A (human) (UniProt O76083)
[2] = target: LOC541468 (human) (UniProt Q96LR2)
[3] = target: HOXA3 (human) (UniProt O43365)
[4] = target: LNX2 (human) (UniProt Q8N448)
[5] = target: MIZF (human) (UniProt Q9BQA5)
[6] = target: HOXD3 (human) (UniProt P31249)
[7] = target: SF3A3 (human) (UniProt Q12874)
[8] = target: DHRS10 (human) (UniProt Q9BPX1)
[9] = target: NEFL (human) (UniProt P07196)
[10] = target: DGCR6L (human) (UniProt Q9BY27)
[11] = target: C20orf141 (human) (UniProt Q9NUB4)
[12] = target: TTC23 (human) (UniProt Q5W5X9)
[13] = target: NOS3 (human) (UniProt P29474)
[14] = target: FLJ22471 (human) (UniProt Q53HC0)
[15] = target: FATE1 (human) (UniProt Q969F0)
[16] = target: KRT8 (human) (UniProt P05787)
[17] = target: LENG1 (human) (UniProt Q96BZ8)
[18] = target: KIF9 (human) (UniProt Q9HAQ2)
[19] = target: NIF3L1 (human) (UniProt Q9GZT8)
[20] = target: MRPS6 (human) (UniProt P82932)
[21] = target: SPG21 (human) (UniProt Q9NZD8)
[22] = target: FANCG (human) (UniProt O15287)
[23] = target: MYEF2 (human) (UniProt Q9P2K5)
[24] = target: KIAA1949 (human) (UniProt Q6NYC8)
[25] = target: ZNF614 (human) (UniProt Q8N883)
[26] = target: HOXB9 (human) (UniProt P17482)
[27] = target: CCDC24 (human) (UniProt Q8N4L8)

**Q.** Which results are given for HIV-1 Tat?
**A.** HIV LTR transactiv. (fold change) [1]: 0.28 fold change; HIV LTR transactiv. (fold change) [2]: 2.38 fold change; HIV LTR transactiv. (fold change) [3]: 0.29 fold change; HIV LTR transactiv. (fold change) [4]: 0.26 fold change; HIV LTR transactiv. (fold change) [5]: 2.5 fold change; HIV LTR transactiv. (fold change) [6]: 7.3 fold change; HIV LTR transactiv. (fold change) [7]: 0.49 fold change

**Q.** With HTLV-1 Tax p40 as the substance, how does the HTLV LTR transactiv. (fold change) [8] read?
**A.** 0.41 fold change

**Q.** And the HTLV LTR transactiv. (fold change) [9]?
**A.** 0.45 fold change

**Q.** What about the HTLV LTR transactiv. (fold change) [10] of the same substance?
**A.** 0.24 fold change

**Q.** What about the HTLV LTR transactiv. (fold change) [11] of the same substance?
**A.** 2.8 fold change

**Q.** And the HTLV LTR transactiv. (fold change) [12]?
**A.** 0.21 fold change

**Q.** What about the HTLV LTR transactiv. (fold change) [13] of the same substance?
**A.** 0.45 fold change

**Q.** What about the HTLV LTR transactiv. (fold change) [14] of the same substance?
**A.** 2.25 fold change

**Q.** And the HTLV LTR transactiv. (fold change) [15]?
**A.** 0.49 fold change

**Q.** And the HTLV LTR transactiv. (fold change) [16]?
**A.** 0.24 fold change

**Q.** What about the HTLV LTR transactiv. (fold change) [17] of the same substance?
**A.** 0.34 fold change

**Q.** What about the HTLV LTR transactiv. (fold change) [18] of the same substance?
**A.** 0.37 fold change

**Q.** What about the HTLV LTR transactiv. (fold change) [19] of the same substance?
**A.** 0.39 fold change

**Q.** What about the HTLV LTR transactiv. (fold change) [20] of the same substance?
**A.** 0.38 fold change

**Q.** And the HTLV LTR transactiv. (fold change) [4]?
**A.** 0.28 fold change

**Q.** And the HTLV LTR transactiv. (fold change) [21]?
**A.** 0.21 fold change

**Q.** And the HTLV LTR transactiv. (fold change) [22]?
**A.** 3.48 fold change

**Q.** And the HTLV LTR transactiv. (fold change) [23]?
**A.** 2.53 fold change

**Q.** And the HTLV LTR transactiv. (fold change) [24]?
**A.** 0.35 fold change

**Q.** What about the HTLV LTR transactiv. (fold change) [25] of the same substance?
**A.** 5.24 fold change

**Q.** What about the HTLV LTR transactiv. (fold change) [26] of the same substance?
**A.** 3.69 fold change

**Q.** And the HTLV LTR transactiv. (fold change) [27]?
**A.** 2.88 fold change
